Results published in EP2975059A1 (Kymab Limited, dated 2016).
One block for each binder: values may come before it.

Assays:
Assay in all cases: SPR ProteOn XPR36, antibody captured on anti-human IgG, PCSK9 variant as analyte, 25 C, 1:1 model
Human PCSK9 form r = molecular target: T1, Human PCSK9 form r (human, UniProt Q8NBP7 31-692)
T1 construct: also called PCSK9 r

Human PCSK9 form f = Human PCSK9 form f (human, UniProt Q8NBP7 31-692)
Human PCSK9 form p = molecular target: T2, Human PCSK9 form p (human, UniProt Q8NBP7 31-692)
T2 construct: also called PCSK9 p

Human PCSK9 form c = molecular target: T3, Human PCSK9 form c (human, UniProt Q8NBP7 31-692)
T3 construct: also called PCSK9 c

Human PCSK9 form a = molecular target: T4, Human PCSK9 form a (human, UniProt Q8NBP7 31-692)
T4 construct: also called PCSK9 a

- Kd (Human PCSK9 form r): 0.23 nM
- koff (Human PCSK9 form r): 2.67e-05 s⁻¹
- kon (Human PCSK9 form r): 116000 M⁻¹ s⁻¹
- Kd (Human PCSK9 form f): 0.229 nM
- koff (Human PCSK9 form f): 2.66e-05 s⁻¹
- kon (Human PCSK9 form f): 116000 M⁻¹ s⁻¹
- Kd (Human PCSK9 form p): 0.219 nM
- koff (Human PCSK9 form p): 2.5e-05 s⁻¹
- kon (Human PCSK9 form p): 114000 M⁻¹ s⁻¹
- Kd (Human PCSK9 form c): 0.183 nM
- koff (Human PCSK9 form c): 2.2e-05 s⁻¹
- kon (Human PCSK9 form c): 120000 M⁻¹ s⁻¹
- Kd (Human PCSK9 form a): 0.229 nM
- koff (Human PCSK9 form a): 2.62e-05 s⁻¹
- kon (Human PCSK9 form a): 114000 M⁻¹ s⁻¹
B1: Evolocumab (antibody, V domains shown)
VH: QVQLVQSGAEVKKPGASVKVSCKASGYTLTSYGISWVRQAPGQGLEWMGWVSFYNGNTNYAQKLQGRGTMTTDPSTSTAYMELRSLRSDDTAVYYCARGYGMDVWGQGTTVTVSS
VL: QSALTQPASVSGSPGQSITISCTGTSSDVGGYNSVSWYQQHPGKAPKLMIYEVSNRPSGVSNRFSGSKSGNTASLTISGLQAEDEADYYCNSYTSTSMVFGGGTKLTVL

- Kd (Human PCSK9 form r): 0.197 nM
- koff (Human PCSK9 form r): 0.000276 s⁻¹
- kon (Human PCSK9 form r): 1.4e+06 M⁻¹ s⁻¹
- Kd (Human PCSK9 form f): 0.203 nM
- koff (Human PCSK9 form f): 0.000282 s⁻¹
- kon (Human PCSK9 form f): 1.39e+06 M⁻¹ s⁻¹
- Kd (Human PCSK9 form p): 0.196 nM
- koff (Human PCSK9 form p): 0.000273 s⁻¹
- kon (Human PCSK9 form p): 1.39e+06 M⁻¹ s⁻¹
- Kd (Human PCSK9 form c): 0.184 nM
- koff (Human PCSK9 form c): 0.000275 s⁻¹
- kon (Human PCSK9 form c): 1.49e+06 M⁻¹ s⁻¹
- Kd (Human PCSK9 form a): 0.201 nM
- koff (Human PCSK9 form a): 0.000275 s⁻¹
- kon (Human PCSK9 form a): 1.37e+06 M⁻¹ s⁻¹
B2: Antibody 316P (antibody, V domains shown)
VH: EVQLVESGGGLVQPGGSLRLSCAASGFTFNNYAMNWVRQAPGKGLDWVSTISGSGGTTNYADSVKGRFIISRDSSKHTLYLQMNSLRAEDTAVYYCAKDSNWGNFDLWGRGTLVTVSS
VL: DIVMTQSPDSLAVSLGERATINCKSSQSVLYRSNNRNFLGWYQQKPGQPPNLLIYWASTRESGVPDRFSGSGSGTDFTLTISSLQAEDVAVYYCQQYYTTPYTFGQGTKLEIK
